One block for each molecule: values may come before it.
What was measured:
[1] = molecular target: zip from GCN4 (T25-zip and T18-zip, positive control of the BACTH kit); test: two-hybrid
[2] = molecular target: T1, N-terminally His-tagged PflB (E. coli, UniProt P09373 2-760); test: cross-linking
T1 sequence: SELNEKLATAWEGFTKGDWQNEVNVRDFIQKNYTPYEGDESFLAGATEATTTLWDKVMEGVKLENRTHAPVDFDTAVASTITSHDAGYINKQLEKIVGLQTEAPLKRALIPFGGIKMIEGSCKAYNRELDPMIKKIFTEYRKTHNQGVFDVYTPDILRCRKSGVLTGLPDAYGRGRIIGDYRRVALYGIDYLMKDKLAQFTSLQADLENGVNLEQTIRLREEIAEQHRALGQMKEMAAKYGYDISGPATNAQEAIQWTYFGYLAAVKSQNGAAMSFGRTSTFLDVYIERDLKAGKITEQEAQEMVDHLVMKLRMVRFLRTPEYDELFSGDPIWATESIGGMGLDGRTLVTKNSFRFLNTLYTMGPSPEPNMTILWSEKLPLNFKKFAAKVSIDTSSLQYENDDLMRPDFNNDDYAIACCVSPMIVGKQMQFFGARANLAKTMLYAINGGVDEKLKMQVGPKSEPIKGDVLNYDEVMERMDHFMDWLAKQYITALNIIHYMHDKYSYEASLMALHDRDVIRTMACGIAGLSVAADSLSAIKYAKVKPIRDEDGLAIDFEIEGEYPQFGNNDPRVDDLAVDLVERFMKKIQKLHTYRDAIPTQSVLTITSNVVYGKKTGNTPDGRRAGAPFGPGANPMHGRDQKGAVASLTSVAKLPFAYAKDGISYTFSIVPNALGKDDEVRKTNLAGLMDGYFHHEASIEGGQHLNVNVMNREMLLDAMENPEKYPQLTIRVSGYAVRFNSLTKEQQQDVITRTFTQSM

[3] = molecular target: T1, N-terminally His-tagged PflB; test: pull-down

β-galactosidase activity [1]: 715 units
Molecule: zip from GCN4 (T25-zip and T18-zip, positive control of the BACTH kit) (domain or fragment)

binding result [2]: binds
B1: FocA, purified preparation used for BS2G cross-linking (natural protein, E. coli)
chain: MKADNPFDLLLPAAMAKVAEEAGVYKATKHPLKTFYLAITAGVFISIAFVFYITATTGTGTMPFGMAKLVGGICFSLGLILCVVCGADLFTSTVLIVVAKASGRITWGQLAKNWLNVYFGNLVGALLFVLLMWLSGEYMTANGQWGLNVLQTADHKVHHTFIEAVCLGILANLMVCLAVWMSYSGRSLMDKAFIMVLPVAMFVASGFEHSIANMFMIPMGIVIRDFASPEFWTAVGSAPENFSHLTVMNFITDNLIPVTIGNIIGGGLLVGLTYWVIYLRENDHH

B2: N-terminally Strep-tagged FocA (formate channel A) (natural protein, E. coli, UniProt P0AC23 1-285, looked up)
chain: B1 chain
binding result [3]: binds
